For this assay, the target named is SH2D3A peptide on HLA-A*02:01 (human). Kind of assay: T2/peptide TDCC potency screen with TCR2-T-IL12 cells, peptide titration; reference: DCAF4L2 target peptide; full-length, on cells. To be noted: chains Valpha:Vbeta.

B1: TCR2 (protein)
chain 1: EDQVTQSPEALRLQEGESSSLNCSYTVSGLRGLFWYRQDPGKGPEFLFTLYSAGEEKEKERLKATLTKKESFLHITAPKPEDSATYLCAVQAWGGGSQGNLIFGKGTKLSVKP
chain 2: DSGVTQTPKHLITATGQRVTLRCSPRSGDLSVYWYQQSLDQGLQFLIQYYNGEERAKGNILERFSAQQFPDLHSELNLSSLELGDSALYFCASSAGDRGYEQYFGPGTRLTVT
Molecule B1 displayed an EC50 of peptide relative to the DCAF4L2 target peptide of 87 fold.
